One test addresses T1, C2 (Comptech A112) (UniProt P06681 21-752).
T1 sequence (looked up): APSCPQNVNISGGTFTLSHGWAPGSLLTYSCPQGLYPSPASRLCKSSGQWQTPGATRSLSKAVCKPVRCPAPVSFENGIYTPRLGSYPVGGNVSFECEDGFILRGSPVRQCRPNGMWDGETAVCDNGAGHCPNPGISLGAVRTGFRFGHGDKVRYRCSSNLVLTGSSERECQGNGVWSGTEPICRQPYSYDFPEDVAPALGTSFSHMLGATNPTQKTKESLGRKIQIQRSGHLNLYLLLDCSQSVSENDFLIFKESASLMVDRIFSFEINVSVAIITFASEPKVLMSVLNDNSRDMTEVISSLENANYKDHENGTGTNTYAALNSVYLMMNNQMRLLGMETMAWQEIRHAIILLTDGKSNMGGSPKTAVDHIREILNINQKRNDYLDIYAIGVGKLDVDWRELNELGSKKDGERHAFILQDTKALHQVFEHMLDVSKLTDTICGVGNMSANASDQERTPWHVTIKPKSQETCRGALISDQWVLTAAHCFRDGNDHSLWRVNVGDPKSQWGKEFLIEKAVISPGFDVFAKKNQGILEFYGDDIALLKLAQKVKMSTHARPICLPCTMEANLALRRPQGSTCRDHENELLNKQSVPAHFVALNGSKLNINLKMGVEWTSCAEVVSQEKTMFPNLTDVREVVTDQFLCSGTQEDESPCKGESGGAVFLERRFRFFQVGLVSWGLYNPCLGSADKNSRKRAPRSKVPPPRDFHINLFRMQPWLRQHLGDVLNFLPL
Nature of the test: ELISA, target coated at 2.5 µg/mL, biotinylated antibody titrated, streptavidin-HRP, OD450 background subtracted. As to the method:
Briefly, complement and plasma proteins were coated onto ELISA plates at 2. 5 μg/mL in PBS overnight at 4° C. Plates were then blocked with Casein for 1 hour at room temperature and washed four times with 1× DPBS/0.05% Tween-20 followed by a single wash with 1× DPBS. Serial dilutions starting at 50 μg/ml of biotinylated chimeric parent or VH6/VK7-IgG4v2 were added to the plate in PBS/0.1%casein/0.1%Tween-20 and incubated for 2 hours at room temperature. Plates were washed as described and a 1:10,000 dilution of streptavidin-HRP (Southern Biotech 7100-05) in PBS/0.1% casein/0.1% Tween-20 was added to the plate and incubated for 30 minutes at room temperature. Plates were again washed and Ultra TMP ELISA (Thermo 34028) was added to the plate for 1 minute, followed by stop solution). OD 450 nm was read in a plate reader and background at 620 nm was subtracted. Both the chimeric parent (FIG. 8A) and the humanized variant (FIG. 8B) show complete specificity for factor Bb.
Background: In an ELISA, binding on a coated surface is turned into a signal by an enzyme label.

Test [1] addresses T2, Homo sapiens factor Bb protein (human, UniProt P00751 260-764).
T2 construct: Bought from CompTech (A155); also called complement factor Bb; human factor Bb
Nature of the test: SPR single cycle kinetics; ratio against VH0/Vκ0. How it is done:
All single cycle kinetic experiments were run at 25° C. with HBS-P+running buffer (pH 7. 4) (GE Healthcare, Little Chalfont, UK).
Antibodies were diluted in running buffer to a final concentration of 1 μg/ml, based on concentrations assessed by ELISA titer. At the start of each cycle, antibodies were loaded onto Fc2, Fc3 and Fc4 of the Protein A chip (GE Healthcare, Little Chalfont, UK). IgGs were captured at a flow rate of 10 μl/min to give an immobilization level (RL) of ˜63 RU, the theoretical value to obtain an Rmax of ˜50 RU. The surface was then allowed to stabilize. Single cycle kinetic data was obtained with factor Bb (CompTech, Tyler, USA) as the analyte at a flow rate of 30 μl/min to minimize any potential mass transport limitations. Multiple repeats with the reference chimeric antibody were performed to check the stability of the surface and analyte over the kinetic cycles. The signal from the reference channel Fc1 (no antibody) was subtracted from that of Fc2, Fc3 and Fc4 to correct for differences in non-specific binding to a reference surface. A four point, two-fold dilution range from 0. 78 nM to 6. 25 nM factor Bb without regeneration between each concentration was used. The association phase for the four injections of increasing concentrations of factor Bb was monitored for 200 seconds each time and a single dissociation phase was measured for 200 seconds following the last injection of factor Bb. Regeneration of the Protein A surface was conducted using two injections of 10 mM glycine-HCL pH 1. 5.
Single cycle kinetics using cell culture supernatants were performed as described above. […] The relative KD was calculated by dividing the KD of the VH0/Vκ0 reference antibody by that of the humanized variant assayed in the same experiment.

The target of test [2] is T2, Homo sapiens factor Bb protein. Nature of the test: SPR multi-cycle kinetics, IgG on Protein A chip, factor Bb analyte. As to the method: Antibodies were diluted in running buffer to a final concentration of 0.5 μg/ml. At the start of each cycle, antibodies were loaded onto Fc2, Fc3 and Fc4 of the Protein A chip (GE Healthcare, Little Chalfont, UK). IgGs were captured at a flow rate of 10 μl/min to give an immobilisation level (RL) of ˜63 RU, the theoretical value to obtain an Rmax of ˜50 RU. The surface was then allowed to stabilize. Kinetic data was obtained with factor Bb as analyte and using a flow rate of 30 μl/min to minimize any potential mass transfer effects. Multiple repeats of a blank and a repeat of a single concentration of the analyte were programmed into the kinetic run in order to check the stability of both the surface and analyte over the kinetic cycles. For kinetic analysis, a two-fold dilution range was selected from 12. 5 nM to 0. 391 nM factor Bb. The association phase of factor Bb was monitored for 360 seconds and the dissociation phase was monitored for 600 seconds. Regeneration of the Protein A surface was conducted using two injections of 10 mM glycine-HCL pH 1. 5. The signal from the reference channel Fc1 was subtracted from that of Fc2, Fc3 and Fc4 to correct for differences in non-specific binding to a reference surface, and a global Rmax parameter was used in the 1-to-1 binding model.
The sensorgrams and fitted data for the binding of chimeric antibodies and humanized variants to factor Bb are shown in FIGS. 4A-4C. The relative KD was calculated by dividing the KD of the humanized variants by that of the chimeric antibody on the same chip. The kinetic parameters measured for the interaction of factor Bb with chimeric antibodies and humanized variants are shown in Table 10.

“And” between values parts separate entries of the source, which are not always exact repeats. Identical values can stand only once.

T2 sequence (P00751 260-764 limits assumed): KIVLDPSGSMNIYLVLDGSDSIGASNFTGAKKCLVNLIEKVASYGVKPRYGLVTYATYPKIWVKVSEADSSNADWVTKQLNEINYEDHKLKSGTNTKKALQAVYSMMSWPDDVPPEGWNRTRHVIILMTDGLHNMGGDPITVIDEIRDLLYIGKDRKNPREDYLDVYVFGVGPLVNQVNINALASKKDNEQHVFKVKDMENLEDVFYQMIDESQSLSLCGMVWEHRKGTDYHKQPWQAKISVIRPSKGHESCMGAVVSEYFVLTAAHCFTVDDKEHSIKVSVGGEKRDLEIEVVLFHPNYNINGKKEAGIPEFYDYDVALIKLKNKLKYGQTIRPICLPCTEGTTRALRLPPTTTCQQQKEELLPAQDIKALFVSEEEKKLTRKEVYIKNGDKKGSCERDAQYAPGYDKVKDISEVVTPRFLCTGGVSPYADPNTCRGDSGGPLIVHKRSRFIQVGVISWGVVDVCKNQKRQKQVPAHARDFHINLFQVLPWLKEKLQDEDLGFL

B1: VH6/Vκ7-IgG4v2 (antibody)
heavy: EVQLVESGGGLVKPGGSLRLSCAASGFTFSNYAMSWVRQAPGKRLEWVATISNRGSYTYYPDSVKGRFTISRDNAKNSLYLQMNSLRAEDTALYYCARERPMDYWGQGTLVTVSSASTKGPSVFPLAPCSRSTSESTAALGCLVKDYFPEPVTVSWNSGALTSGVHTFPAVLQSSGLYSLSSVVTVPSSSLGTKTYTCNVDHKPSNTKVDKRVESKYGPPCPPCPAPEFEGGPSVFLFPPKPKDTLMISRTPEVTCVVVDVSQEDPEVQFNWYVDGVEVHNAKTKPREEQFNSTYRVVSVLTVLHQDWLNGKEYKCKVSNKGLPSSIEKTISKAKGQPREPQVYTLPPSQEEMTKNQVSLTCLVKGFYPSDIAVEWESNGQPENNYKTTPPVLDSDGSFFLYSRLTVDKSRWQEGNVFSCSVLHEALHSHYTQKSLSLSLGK
light: DIQMTQSPSTLSASVGDRVTITCKASQDVGTAVAWYQQKPGKAPKLLIYWASTRHTGVPDRFSGSGSGTDFTLTISSLQAEDFAVYFCHQHSSNPLTFGQGTKLEIKRTVAAPSVFIFPPSDEQLKSGTASVVCLLNNFYPREAKVQWKVDNALQSGNSQESVTEQDSKDSTYSLSSTLTLSKADYEKHKVYACEVTHQGLSSPVTKSFNRGEC
notes: also called VH6/VK7-IgG4v2; VH6/VK7-IgG4v2_HEK
In the case of B1, the binding result with C2 (Comptech A112) is recorded as “no binding”.

B2: VH0/Vκ0 (Chimeric) (antibody, V domains shown)
VH: EVQLVESGGALVKPGGSLKLSCAASGFTFSNYAMSWVRQTPEKRLEWVATISNRGSYTYYPDSVKGRFTISRDNAKNTLYLQMSSLRSEDTALYYCARERPMDYWGQGTSVTVSS
VL: DIVMTQSHKFMSTSVGDRVSITCKASQDVGTAVAWYQQKPGQSPKLLIYWASTRHTGVPDRFTGSGSGTDFTLTITNVQSEDLAVYFCHQHSSNPLTFGAGTKLELK
notes: also called chimeric antibody
Take B2: in test [1], the “Relative KD” value stood at 1. In addition, in test [2], the Kd is 1.99 nM and 1.91 nM and 1.9 nM; the koff was 0.000969 s⁻¹ and 0.000954 s⁻¹ and 0.00094 s⁻¹; the kon is 487000 M⁻¹ s⁻¹ and 500000 M⁻¹ s⁻¹ and 495000 M⁻¹ s⁻¹.

The term Kd denotes the constant that tells how readily two partners part at equilibrium. Low readings indicate tighter binding, high ones weaker binding. The term koff denotes a measure of how fast the partners let go of each other. A lower koff goes with slow dissociation. In general, kon refers to the rate constant with which the complex forms. Read a low kon as slow association.

The values above are taken from patent publication US20210332115A1 (Sanofi, published 2021).
